Reference: publication doi:10.1101/2024.02.27.582283

Target: SET-26::GFP, excessively sumoylated (ulp-2 loss of activity background) (C. elegans) (UniProt Q9U263)
Assay: co-IP

Chain of UniProt Q9U263 (Q9U263 whole entry): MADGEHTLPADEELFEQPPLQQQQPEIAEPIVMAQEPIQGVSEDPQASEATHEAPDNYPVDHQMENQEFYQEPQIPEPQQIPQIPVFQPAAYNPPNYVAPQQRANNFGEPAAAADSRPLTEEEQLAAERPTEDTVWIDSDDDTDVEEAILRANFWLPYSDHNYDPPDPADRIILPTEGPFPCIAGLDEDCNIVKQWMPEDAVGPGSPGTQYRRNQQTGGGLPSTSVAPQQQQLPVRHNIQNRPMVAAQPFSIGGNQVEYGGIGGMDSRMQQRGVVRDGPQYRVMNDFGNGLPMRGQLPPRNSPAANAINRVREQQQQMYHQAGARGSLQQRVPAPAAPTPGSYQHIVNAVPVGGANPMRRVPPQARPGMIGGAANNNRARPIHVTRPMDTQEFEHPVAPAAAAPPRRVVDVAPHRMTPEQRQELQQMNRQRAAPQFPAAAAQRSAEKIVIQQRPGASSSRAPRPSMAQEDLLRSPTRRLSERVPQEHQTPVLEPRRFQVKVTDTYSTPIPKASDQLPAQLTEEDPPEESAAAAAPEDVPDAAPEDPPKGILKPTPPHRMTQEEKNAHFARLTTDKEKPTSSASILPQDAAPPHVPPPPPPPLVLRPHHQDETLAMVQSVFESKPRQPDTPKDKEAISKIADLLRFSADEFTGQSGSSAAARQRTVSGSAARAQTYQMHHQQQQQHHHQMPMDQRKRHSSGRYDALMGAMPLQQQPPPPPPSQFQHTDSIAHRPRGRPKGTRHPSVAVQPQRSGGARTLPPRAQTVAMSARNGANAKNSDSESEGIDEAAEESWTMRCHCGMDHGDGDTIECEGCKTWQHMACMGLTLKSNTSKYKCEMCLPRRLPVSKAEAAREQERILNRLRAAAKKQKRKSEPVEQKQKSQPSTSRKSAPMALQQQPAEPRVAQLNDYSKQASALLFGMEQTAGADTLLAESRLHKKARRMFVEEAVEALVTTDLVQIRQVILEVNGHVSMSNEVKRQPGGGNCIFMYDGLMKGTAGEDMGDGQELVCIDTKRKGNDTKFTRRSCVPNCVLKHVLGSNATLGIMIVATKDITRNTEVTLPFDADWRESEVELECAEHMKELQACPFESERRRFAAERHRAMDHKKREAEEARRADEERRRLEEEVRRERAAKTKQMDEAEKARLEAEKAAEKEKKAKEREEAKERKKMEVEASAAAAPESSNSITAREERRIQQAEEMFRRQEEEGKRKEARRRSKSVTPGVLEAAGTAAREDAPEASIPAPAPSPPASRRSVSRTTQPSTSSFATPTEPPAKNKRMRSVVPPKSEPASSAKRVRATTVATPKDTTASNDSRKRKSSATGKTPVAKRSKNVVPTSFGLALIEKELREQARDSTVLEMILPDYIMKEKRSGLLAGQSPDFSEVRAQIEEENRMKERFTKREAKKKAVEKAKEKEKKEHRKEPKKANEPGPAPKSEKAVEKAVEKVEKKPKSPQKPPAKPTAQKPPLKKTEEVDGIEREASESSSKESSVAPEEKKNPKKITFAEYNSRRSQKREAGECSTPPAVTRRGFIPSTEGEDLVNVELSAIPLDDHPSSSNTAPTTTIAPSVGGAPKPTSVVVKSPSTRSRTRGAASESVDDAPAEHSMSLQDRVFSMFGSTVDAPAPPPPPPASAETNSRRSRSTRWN

Substance: Histone H3 trimethylated at lysine 4 (H3K4me3) (from UniProt P08898 1-136) (natural protein)
- reduction of binding compared with WT: 55%
